± gives the standard deviation of the averaged measurements.
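Note: ATP exposure 15 min at 22 °C before imaging.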

This series has as its system ATP. In words: switch fluorescence ratio, 500 uM ATP over buffer (Cy3 cluster intensity, sum of 5 cycles each) (fold (ratio)); higher = stronger signal-on switching upon ATP binding; sequences stand for … in TCGTCGGCAGCGTCAGATGTGTATAAGAGACAGTTTTTTTTTTTTTTTTTTTTTTTTT…TC. The note with it: aptamer strand: ATP DNA aptamer (quencher-CACCTGGGGGAGTATTGCGGAGGAAGG + anchor), 100 nM annealed; ATP concentration: 500 uM. The method in brief:
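Values give the fluorescence ratio for each switch-domain sequence, averaged from per-cluster ratios of summed target-cycle to summed buffer-cycle Cy3 intensity. The Cy3-labelled switching-strand clusters sat on a modified Illumina MiSeq flow-cell, were annealed to 100 nM quencher-labelled ATP aptamer, and were imaged in selection buffer, then after 15 min with 500 uM ATP at 22 °C. Five cycles ran with NaOH stripping and re-annealing between them, and clusters outside 100-1000 RFU were excluded.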
On to TATTCTTTGA, for which the switch fluorescence ratio turned out to be 1.02 ± 0.03.
The figure for GGTATGTGTT is 0.987 ± 0.04; for CTTAAAATGC it is 1.66 ± 0.46.
The figure for TGGCGTTTTG is 0.9687 ± 0.0069; for TGTAATTGCT it is 0.999 ± 0.022.
For GAAGGAGGTT the value was 1 ± 0.012.
In the case of TGTTAGCCGA, the switch fluorescence ratio is 1.02 ± 0.026.
The figure for TACGGATACT is 1.27 ± 0.026; for TAGGCTACGG it is 1.03 ± 0.014.
The figure for GCTCGACCCT is 1.07 ± 0.039; for TTTTTCTGCT it is 0.9786 ± 0.0051.
In the case of TTTCGTTTGC, the switch fluorescence ratio is 0.998 ± 0.046.
For GAAATTAGGA the value was 1.01 ± 0.028.
Regarding GGGGAGATTC, the switch fluorescence ratio was 0.994 ± 0.013.
For GATTTCGATG the value was 1.01 ± 0.013.
In the case of TCTAATAGCC, the switch fluorescence ratio came to 1.03 ± 0.08.
The figure for TTCATCGGGG is 0.979 ± 0.028; for GCTGCAAGGG it is 1.07 ± 0.063.
The figure for TTGGGGGGTT is 1.03 ± 0.066.
As for TGCTAGGGGT, the switch fluorescence ratio is 1.41 ± 0.051.
The figure for CAATCATGTC is 1.04 ± 0.05; for ATGTAGGGTT it is 1.036 ± 0.0048; for CGCGGAGGGG it is 1.01 ± 0.049.
Regarding AACCACTGGG, the switch fluorescence ratio was 1.17 ± 0.13.
The figure for GTTTCACGGT is 1.003 ± 0.0079; for GCTTTTTATA it is 1.02 ± 0.027; for GCTCTGTTGG it is 1.01 ± 0.048.
The figure for ACCGCGGGGG is 1.03 ± 0.034; for AAGGAAAGAT it is 0.975 ± 0.04.
The figure for TTTAGAGCGT is 0.9933 ± 0.0013; for GGCAAAGGGT it is 1.06 ± 0.056.
For the sequence CGACAGGCAT, the switch fluorescence ratio amounted to 1.63 ± 0.063.
Regarding AAGTTATTGT, the switch fluorescence ratio amounted to 1.21 ± 0.33.
For AAATTGTAAT the value was 1.02 ± 0.041; for TCGGGATGGC, 1.03 ± 0.024; for ACATGTTATT, 1.01 ± 0.035.
The figure for AGTGTGGGCA is 0.965 ± 0.026; for AGGTCCGGTA it is 1.01 ± 0.011; for TAATGGATGG it is 0.966 ± 0.019.
Regarding TGGGTTAATG, the switch fluorescence ratio is 0.9912 ± 0.0069.
The figure for GCTGAGGCTT is 0.9593 ± 0.0019.
As for CGCTGGGTAC, the switch fluorescence ratio was 2.24 ± 0.28.
For the sequence TGATGGTTCA, the switch fluorescence ratio amounted to 0.941 ± 0.077.
For ATGTGACTCT the value was 1.01 ± 0.043; for GGCTCAATTT, 0.967 ± 0.012.
For ATGGATTTAC the value was 1.06 ± 0.028.
As for GAGGGGACTT, the switch fluorescence ratio turned out to be 1.09 ± 0.13.
The figure for AGATGACTGA is 0.997 ± 0.048; for CACGGAAGCA it is 1.07 ± 0.019.
The figure for TTAGAAACGC is 1.02 ± 0.04; for TAGTCATATC it is 1.01 ± 0.032.
The figure for GGATCGAAGG is 0.96 ± 0.039; for TTTGTTATAT it is 0.9839 ± 0.0039; for AGCGGCCTGG it is 0.992 ± 0.014.
For the sequence TTATACGCGG, the switch fluorescence ratio was determined as 0.991 ± 0.026.
For AATGTAGGGG the value was 1.02 ± 0.045; for CTAGGGCATG, 0.98 ± 0.016.
For GGAATCTAGT the value was 0.999 ± 0.018.
The figure for CCTGGGGTGT is 1.34 ± 0.28.
In the case of TAAGATAAAA, the switch fluorescence ratio amounted to 1.02 ± 0.017.
For GGGCGCAACG the value was 1.05 ± 0.073; for CAGTTCTCGT, 0.969 ± 0.018; for TCCGTTTGTT, 0.991 ± 0.04.
For TCTTGCAAGG the value was 1.11 ± 0.17.
For the sequence TTCAATACCG, the switch fluorescence ratio was 1.09 ± 0.025.
The figure for GGCTAAGAAT is 1.03 ± 0.058.

Values taken from the supplement of paper PMC10126150.
